Results published in US20260125472A1 (HEFEI TG IMMUNOPHARMA, published 2026).

T1: Trop2 protein (UniProt P09758 27-274)
T1 construct: Bought recombinant protein; also called Trop2-Biotin protein (biotin-labelled, bridging ELISA)
T1 sequence (looked up): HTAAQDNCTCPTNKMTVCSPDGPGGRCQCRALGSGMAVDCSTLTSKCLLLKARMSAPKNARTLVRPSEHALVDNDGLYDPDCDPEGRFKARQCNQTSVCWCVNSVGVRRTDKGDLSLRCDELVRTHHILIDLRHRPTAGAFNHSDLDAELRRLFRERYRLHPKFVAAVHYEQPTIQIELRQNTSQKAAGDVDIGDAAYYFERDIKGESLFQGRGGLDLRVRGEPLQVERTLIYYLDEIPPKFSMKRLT

T2: Trop2 on A-375-Trop2 melanoma cells (UniProt P09758 27-323, limits assumed)
T2 construct: whole, on cells
T2 sequence (looked up): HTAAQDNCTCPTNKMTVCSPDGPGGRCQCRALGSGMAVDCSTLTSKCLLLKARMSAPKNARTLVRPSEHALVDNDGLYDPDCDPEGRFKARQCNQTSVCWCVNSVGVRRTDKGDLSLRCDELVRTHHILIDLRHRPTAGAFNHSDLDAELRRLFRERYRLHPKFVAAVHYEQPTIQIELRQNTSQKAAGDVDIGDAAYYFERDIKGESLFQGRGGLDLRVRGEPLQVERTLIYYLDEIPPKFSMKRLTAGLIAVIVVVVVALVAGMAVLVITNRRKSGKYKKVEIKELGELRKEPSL


Assays:
[1] = target: T3, PDL1 on A-375 melanoma cells, HCT-15 colorectal cancer cells and A549 lung cancer cells (UniProt Q9NZQ7 19-290, limits assumed); test: flow cytometry, A549 cells, MFI [panel B]
T3 construct: whole, on cells
In short: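 Cells were blocked with goat serum at 4° C for 30 min, then incubated with serially diluted bispecific antibodies or hIgG1LALA control at 4° C for 30 min. Bound antibody was detected with Alexa-647 anti-human IgG (4° C, 30 min, dark) and read by flow cytometry.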

[2] = target: T4, PDL1 protein (UniProt Q9NZQ7 19-238); test: ELISA, coated PDL1 protein, OD450 [panel A]
T4 construct: Bought recombinant protein
In short: (§1)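 PDL1 protein coated at 2 μg/ml overnight at 4 °C, blocked with PBS/10% BSA; serially diluted bispecific antibodies or control IgG1LALA bound 1 h at 37 °C. Detection with HRP anti-human Fab secondary antibody and TMB for 3 min, stopped with sulfuric acid, absorbance at 450 nm.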

[3] = target: T3, PDL1 on A-375 melanoma cells, HCT-15 …; test: flow cytometry, A-375 cells, binding ratio % [panel A]
Experimental: (§2) (2) The tumor cells were diluted to 2×10⁶/ml with PBS and added to a 1.5 ml EP tube at a volume of 100 μl/tube, and goat serum was added thereto at 10 μl/tube. The cells were blocked at 4° C. for 30 min. The serially diluted bispecific antibodies, Cross3×Trop2, Cross303×Trop2, Cross307×Trop2, Cross308×Trop2, Cross309×Trop2, Cross310×Trop2, Cross311×Trop2, Cross312×Trop2, Cross313×Trop2, Cross314×Trop2, Cross316×Trop2, Cross317×Trop2, Cross318×Trop2, Cross323×Trop2, Cross325×Trop2, Cross326×Trop2, and Cross3×PDL1, Cross303×PDL1, Cross307×PDL1, Cross308×PDL1, Cross309×PDL1, Cross310×PDL1, Cross311×PDL1, Cross312×PDL1, Cross313×PDL1, Cross314×PDL1, Cross316×PDL1, Cross317×PDL1, Cross318×PDL1, Cross323×PDL1, Cross325×PDL1, Cross326×PDL1, and control hIgG1LALA (purchased from Bio-Tech) were added and incubated at 4° C. for 30 min. 1 ml of PBS was added to the EP tube, followed by centrifugation at 3500 rpm for 5 min at 4° C. The supernatant was discarded, and the cells were washed again with PBS. After centrifugation, the supernatant was completely discarded, and the cells were resuspended with PBS at 100 μl/tube. Alexa-647-labeled goat anti-human IgG secondary antibody (purchased from Jackson lab) was added at 1 μl/tube and incubated at 4° C. in the dark for 30 min. The cells were washed twice with PBS, and the supernatant was completely discarded after centrifugation. The cells were resuspended with PBS at 200 μl/tube and assay was performed using the flow cytometry.

[4] = target: T3, PDL1 on A-375 melanoma cells, HCT-15 …; test: flow cytometry, HCT-15 cells, binding ratio % [panel A]
Experimental: as §2, with “The cells were resuspended with PBS at 200 μl/tube and assay was performed using the flow cytometry.” left out

[5] = target: T4, PDL1 protein; test: ELISA, coated PDL1 protein, OD450 [panel B]
In short: as §1

[6] = target: T1, Trop2 protein; test: ELISA, coated Trop2 protein, OD450
Source text: (§3) In this example, the binding properties of the CD3×Trop2 and CD3×PDL1 bispecific antibody (the production method and the amino acid sequences of the heavy and light chains were shown in Example 1) were detected by using ELISA. The CD3E&D, Trop2, or PDL1 protein was coated onto 96-well plates by inventors, and the strength of the signal after the addition of the antibody was used to determine the binding properties of the antibody and the corresponding protein.
(2) Trop2 protein (purchased from Acro) was diluted to 2 μg/ml with PBS buffer, added to a 96-well plate at a volume of 100 μL/well, and placed at 4° C. overnight. The PBS buffer in the 96-well plate was aspirated, and the plate was washed 6 times with PBST (pH 7.2 PBS containing 0.1% Tween 20) buffer. Then, 200 μL/well PBS/10% BSA was added and incubated at 37° C. for 2 h for blocking. The blocking solution was removed, and the plate was washed six times with PBST. Then, the to-be-tested bispecific antibodies, Cross3×Trop2, Cross303×Trop2, Cross307×Trop2, Cross308×Trop2, Cross309×Trop2, Cross310×Trop2, Cross311×Trop2, Cross312×Trop2, Cross313×Trop2, Cross314×Trop2, Cross316×Trop2, Cross317×Trop2, Cross318×Trop2, Cross323×Trop2, Cross325×Trop2, Cross326×Trop2, and control IgG1LALA (purchased from Bio-Tech), serially diluted with PBST/0.05% BSA, were added at 100 μL/well and incubated at 37° C. for 1 h. The reaction system was removed, and the plate was washed 6 times with PBST. Then, HRP (horseradish peroxidase)-labeled anti-human secondary antibody (Fab specific) (purchased from Sigma) diluted with PBST/0.05% BSA at 100 μL/well. After the plate was washed six times with PBST, TMB (tetramethylbenzidine) was added at 80 μL/well, and incubated at room temperature for 3 min. 4 M sulfuric acid was added at 80 μL/well to terminate the reaction. The absorbance was read at 450 nm using a microplate reader.

[7] = target: T5, CD3E&D protein (UniProt P04234 22-105); test: ELISA, coated CD3E&D protein, OD450
T5 construct: Purchased from Acro; also called CD3 E&D antigens; CD3E&D antigen protein
Source text: as §3
(1) CD3E&D protein (purchased from Acro) was diluted to 2 μg/ml with PBS buffer, added to a 96-well plate at a volume of 100 μL/well, and placed at 4° C. overnight. The PBS buffer in the 96-well plate was aspirated, and the plate was washed 6 times with PBST (pH 7.2 PBS containing 0.1% Tween 20) buffer. Then, 200 μL/well PBS/10% BSA was added and incubated at 37° C. for 2 h for blocking. The blocking solution was removed, and the plate was washed 6 times with PBST. […] The absorbance was read at 450 nm using a microplate reader.

[8] = target: T2, Trop2 on A-375-Trop2 melanoma cells; test: flow cytometry, A-375-Trop2 cells, MFI [panel B]
Experimental: as §2

T3 sequence (Q9NZQ7 19-290 limits assumed): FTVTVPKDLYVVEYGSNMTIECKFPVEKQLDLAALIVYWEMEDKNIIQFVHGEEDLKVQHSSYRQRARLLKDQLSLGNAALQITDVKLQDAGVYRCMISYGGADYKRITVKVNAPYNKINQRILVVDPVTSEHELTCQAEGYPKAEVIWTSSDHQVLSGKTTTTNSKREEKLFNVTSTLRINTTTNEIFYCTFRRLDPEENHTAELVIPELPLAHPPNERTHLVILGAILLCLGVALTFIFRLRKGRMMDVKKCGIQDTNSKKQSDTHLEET
T4 sequence (Q9NZQ7 19-238 limits assumed): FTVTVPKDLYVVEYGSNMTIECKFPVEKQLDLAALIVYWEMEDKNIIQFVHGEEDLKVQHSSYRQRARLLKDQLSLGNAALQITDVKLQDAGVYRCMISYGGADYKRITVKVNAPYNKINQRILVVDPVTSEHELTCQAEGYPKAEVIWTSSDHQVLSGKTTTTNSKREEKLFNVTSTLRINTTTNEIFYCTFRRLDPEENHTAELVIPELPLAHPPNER
T5 sequence (chain, as listed by the source limits assumed, chain 1 of 2): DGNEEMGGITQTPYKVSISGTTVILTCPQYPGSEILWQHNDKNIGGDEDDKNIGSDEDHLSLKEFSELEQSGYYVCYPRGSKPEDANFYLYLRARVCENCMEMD
T5 sequence (P04234 22-105 limits assumed, chain 2 of 2): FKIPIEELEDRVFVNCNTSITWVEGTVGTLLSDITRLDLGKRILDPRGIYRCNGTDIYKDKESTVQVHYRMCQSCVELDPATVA

Binder	EC50 (read off the curve) [1]	EC50 (read off the curve) [2]	EC50 (read off the curve) [3]	EC50 (read off the curve) [4]	EC50 (read off the curve) [5]	EC50 (read off the curve) [6]	EC50 (read off the curve) [7]	EC50 (read off the curve) [8]
Cross310×PDL1 (bispecific antibody, human IgG1, kappa, L234A L235A) scFv: not shown heavy: QVQLVQSGAEVKKPGASVKVSCKASGYSFTGYYMHWVRQAPGQGLEWIGRINPYNGATTYSQNFKDRATMTVDTSISTAYMELSRLRSDDTAVYYCVPTGMGYFLMDYWGQGTLVTVSSASTKGPSVFPLAPSSKSTSGGTAALGCLVKDYFPEPVTVSWNSGALTSGVHTFPAVLQSSGLYSLSSVVTVPSSSLGTQTYICNVNHKPSNTKVDKKVEPKSCDKTHTCPPCPAPEAAGGPSVFLFPPKPKDTLMISRTPEVTCVVVDVSHEDPEVKFNWYVDGVEVHNAKTKPREEQYNSTYRVVSVLTVLHQDWLNGKEYKCKVSNKALPAPIEKTISKAKGQPREPQVCTLPPSREEMTKNQVSLSCAVKGFYPSDIAVEWESNGQPENNYKTTPPVLDSDGSFFLVSKLTVDKSRWQQGNVFSCSVMHEALHNHYTQKSLSLSPGK light: DIQLTQSPSFLSASVGDRVTITCKASQDVGSAVVWYQQKPGKAPKLLIYWASTRHTGVPSRFSGSGSGTEFTLTISSLQPEDFATYFCQQFTSYPTFGQGTKLEIKRTVAAPSVFIFPPSDEQLKSGTASVVCLLNNFYPREAKVQWKVDNALQSGNSQESVTEQDSKDSTYSLSSTLTLSKADYEKHKVYACEVTHQGLSSPVTKSFNRGEC	~2 µg/mL	~0.5 µg/mL	~0.7 µg/mL	~0.7 µg/mL	–	–	–	–
Cross326×PDL1 (bispecific antibody, human IgG1, kappa, L234A L235A) scFv: not shown heavy: QVQLVQSGAEVKKPGASVKVSCKASGYSFTGYYMHWVRQAPGQGLEWIGRINPYNGATTYSQNFKDRATMTVDTSISTAYMELSRLRSDDTAVYYCVPTGMGYFLMDYWGQGTLVTVSSASTKGPSVFPLAPSSKSTSGGTAALGCLVKDYFPEPVTVSWNSGALTSGVHTFPAVLQSSGLYSLSSVVTVPSSSLGTQTYICNVNHKPSNTKVDKKVEPKSCDKTHTCPPCPAPEAAGGPSVFLFPPKPKDTLMISRTPEVTCVVVDVSHEDPEVKFNWYVDGVEVHNAKTKPREEQYNSTYRVVSVLTVLHQDWLNGKEYKCKVSNKALPAPIEKTISKAKGQPREPQVCTLPPSREEMTKNQVSLSCAVKGFYPSDIAVEWESNGQPENNYKTTPPVLDSDGSFFLVSKLTVDKSRWQQGNVFSCSVMHEALHNHYTQKSLSLSPGK light: DIQLTQSPSFLSASVGDRVTITCKASQDVGSAVVWYQQKPGKAPKLLIYWASTRHTGVPSRFSGSGSGTEFTLTISSLQPEDFATYFCQQFTSYPTFGQGTKLEIKRTVAAPSVFIFPPSDEQLKSGTASVVCLLNNFYPREAKVQWKVDNALQSGNSQESVTEQDSKDSTYSLSSTLTLSKADYEKHKVYACEVTHQGLSSPVTKSFNRGEC	–	–	~0.07 µg/mL	~0.07 µg/mL	~0.1 µg/mL	–	–	–
Cross317×Trop2 (bispecific antibody) scFv: not shown heavy: QVQLQQSGSELKKPGASVKVSCKASGYTFTNYGMNWVKQAPGQGLKWMGWINTYTGEPTYTDDFKGRFAFSLDTSVSTAYLQISSLKADDTAVYFCARGGFGSSYWYFDVWGQGSLVTVSSASTKGPSVFPLAPSSKSTSGGTAALGCLVKDYFPEPVTVSWNSGALTSGVHTFPAVLQSSGLYSLSSVVTVPSSSLGTQTYICNVNHKPSNTKVDKKVEPKSSDKTHTCPPCPAPEAAGGPSVFLFPPKPKDTLMISRTPEVTCVVVDVSHEDPEVKFNWYVDGVEVHNAKTKPREEQYNSTYRVVSVLTVLHQDWLNGKEYKCKVSNKALPAPIEKTISKAKGQPREPQVCTLPPSREEMTKNQVSLSCAVKGFYPSDIAVEWESNGQPENNYKTTPPVLDSDGSFFLVSKLTVDKSRWQQGNVFSCSVMHEALHNHYTQKSLSLSPGK light: DIQLTQSPSSLSASVGDRVSITCKASQDVSIAVAWYQQKPGKAPKLLIYSASYRYTGVPDRFSGSGSGTDFTLTISSLQPEDFAVYYCQQHYITPLTFGAGTKVEIKRTVAAPSVFIFPPSDEQLKSGTASVVCLLNNFYPREAKVQWKVDNALQSGNSQESVTEQDSKDSTYSLSSTLTLSKADYEKHKVYACEVTHQGLSSPVTKSFNRGEC	–	–	–	–	–	~0.008 µg/mL	~1 µg/mL	~1 µg/mL
